Substitutions are numbered along the chain they refer to.
B1: Kusabira-Cyan1 (protein)
chain: MVSVIKPEMKMRYYMDGSVNGHEFTVEGEGTGRPYEGKHKITLDVTKGGPLPFAFDLLSTVFSYGNRALTKYPDDIPDYFKQCFPGGYSWERKFEFEDGGLAIAKAEISLKGNCFEHKSTIEGTFPDSSPIMQNKTLGWEPSTEKMTVRDGSMKGDDAAYLKLVGGGNHKCYFTTTYTAKKKIPNLPGSHFIGHRISSVVEGTKIKVMEDAIAHLYPFNGS
modifications: Synthetic sequence KCy1
B2: dimeric Azami-Green (AB) (protein)
chain: MVSVIKPEMKIKLCMRGTVNGHNFVIEGEGKGNPYEGTQILDLNVTEGAPLPFAYDILTTVFQYGNRAFTKYPADIQDYFKQTFPEGYHWERSMTYEDQGICTATSNISMRGDCFFYDIRFDGVNFPPNGPVMQKKTLKWEPSTEKMYVRDGVLKGDVNMALLLEGGGHYRCDFKTTYKAKKDVRLPDAHKVDHRIEILKHDKDYNKVKLYENAVARYSMLPSQAK
modifications: Synthetic sequence dAG(AB)
B3: dimeric Azami-Green (AC) (protein)
chain: B2 chain with V124T, A189Y, K191F
modifications: Synthetic sequence dAG(AC)
B4: TGuv: fluorescent protein capable of homotetramerization, SEQ ID NO: 147 (protein)
chain: MVSVIGKDMIMKLHVEGCVNGHSFKIEGDGKGKPYEGDQTVKLRVTEGGPLPFAFDILSASMCYGNRCFTKYPAEIPDIFKQTFPEGYSWERALTFEDGGFASSSSHISVRGNCFFYDVKYHGVNFPSNGPIMQRKTIGWQPSTEKLYIGEGTLKGDDTMFLKLEGGGTHKCHVLTTYKTKKDVQMPDSHFIDHRLLTSHLDKECNNVELREHAVARNSSLPSR
modifications: Synthetic sequence TGuv
B5: Momiji: fluorescent protein capable of homotetramerization, SEQ ID NO: 149 (protein)
chain: MVSVIKDEMKVNLRMEGSVNGHDFVIDGLGSGKPKEGTQTIELKVVKGGPLPFAYDILTTAFHYGNRVFAKYPKDIPNYFEQSFPEGYSWERSMIFEDGGICIARNDITMDGGTFYNKVRFYGVNFPPNGPVMQKKTQKWEQSTEKMYARDGVLTGDINMALLLKGGGHYRCDFRTTYKAKEKGVKLPGYHFIDHCIEILSHRNDYNNVTLFEHAVARSGLQDKEKQQQ
modifications: Synthetic sequence Momiji
B6: monomeric Kusabira-Orange 2 (protein)
chain: MVSVIKPEMKMRYYMDGSVNGHEFTIEGEGTGRPYEGHQEMTLRVTMAEGGPMPFAFDLVSHVFCYGHRVFTKYPEEIPDYFKQAFPEGLSWERSLEFEDGGSASVSAHISLRGNTFYHKSKFTGVNFPADGPIMQNQSVDWEPSTEKITASDGVLKGDVTMYLKLEGGGNHKCQMKTTYKAAKEILEMPGDHYIGHRLVRKTEGNITEQVEDAVAHS
modifications: Synethetic sequence of monomeric version pf KO(Kusabira-Orange)
B7: monomericMidoriishi-Cyan1 (protein)
chain: MVSYSKQGIAQEMRTKYRMEGSVNGHEFTIEGVGTGNPYEGKQTSELVIIKPKGKPLPFSFDILSTVFQYGNRCFTKYPADMPDYFKQAFPDGMSYERSFLFEDGGVATASWSIRLEGNCFIHNSIYHGTNFPADGPVMKKQTIGWDKSSEKMSVAKEVLRGDVTQFLLLEGGGYQRCQLHSTYKTEKPVAMPPSHVVEHQIVRTDLGQTAKGFKVKLEEHAEAHVNPLKVK
modifications: Synthetic sequence mMiCy1

How the values were obtained:
[1] = target: T1, mTOR(FRB) and FKBP12 interaction (Homo sapiens, UniProt P42345+P62942); test: Degree of fluorescent focus (assembly) formation after rapamycin, fluorescent proteins fused to mTOR(FRB) (Example 8, Table 1); type: cell-based; parameters: key to degree of fluorescent focus formation, Tankyrase (SAM): +++: fluorescent foci were observed in 50% or more of the HeLaS3 cells; ++: fluorescent foci were observed in 50% or less of the HeLaS3 cells; +: fluorescent foci were observed in 293T cells expressing a larger amount of proteins than that in the HeLaS3 cells; conditions: fluorescent protein fused to mTOR(FRB); for degree of fluorescent focus formation, DGKd (SAM): with FKBP12-DGKd(SAM); for degree of fluorescent focus formation, TEL (SAM): with FKBP12-TEL(SAM); for degree of fluorescent focus formation, Tankyrase (SAM): with FKBP12-Tankyrase(SAM), some combinations in 293T cells; for degree of fluorescent focus formation, P62 (PB1): with p62(PB1)-FKBP12
T1 construct: region having the 2025th to 2114th amino acids of the mTOR protein; expressed in transfected cells; host or cells: HeLaS3; 293T for some combinations with FKBP12-Tankyrase(SAM)
Procedure: Note that plasmid DNAs encoding fusion proteins composed of mTOR(FRB) and the corresponding fluorescent proteins were prepared as appropriate by the same method as that described in Example 2. Moreover, regarding the combinations of FKBP12-Tankyrase(SAM) with mKO2, mKeima, mMiCy1, mKO1, MiCy1, and TGuv, the test was conducted by introducing the genes into 293T cells. Specifically, the 293T cells were cultured in DMEM High glucose (manufactured by SIGMA ALDRICH CO.) containing 10% FBS (manufactured by Equitech-Bio Inc.). Moreover, the 293T cells were seeded onto an 8-well chamber (manufactured by Nunc A/S) 6 hours before the plasmid DNAs were introduced. Further, at the time of the transfection, 200 ng of the plasmid DNA encoding FKBP12-Tankyrase(SAM) and 200 ng of one of the plasmid DNAs encoding fusion proteins composed of the fluorescent proteins and mTOR(FRB) were diluted with 30 μl of OptiMEM (manufactured by Life Technologies Corporation), and 1.2 μl of TurboFect Transfection Reagent (manufactured by Thermo Fisher Scientific Inc.) was added thereto and stirred. Then, the resultant was further mixed with 300 μl of the culture solution, subsequently added to the 293T cells, and observed 48 hours later.

[2] = target: T1, mTOR(FRB) and FKBP12 interaction; test: Degree of fluorescent focus (assembly) formation after rapamycin with TFG(PB1) (Example 9, Table 2); type: cell-based; parameters: key: ++: fluorescent foci were observed in 50% or less of the HeLaS3 cells; +: fluorescent foci were observed in the 293T cells expressing a larger amount of proteins than that in the HeLaS3 cells; conditions: fluorescent protein fused to mTOR(FRB), KO1 and dAG (AB) in 293T cells

T1 sequence (P42345 2025-2114): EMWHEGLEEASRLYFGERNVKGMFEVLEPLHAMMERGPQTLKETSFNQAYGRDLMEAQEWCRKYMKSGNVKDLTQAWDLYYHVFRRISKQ
T1 sequence (P62942 whole entry, the tested form may be a part): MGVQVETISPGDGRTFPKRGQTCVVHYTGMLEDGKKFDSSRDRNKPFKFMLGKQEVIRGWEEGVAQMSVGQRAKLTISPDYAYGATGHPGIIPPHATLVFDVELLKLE

Molecule	degree of fluorescent focus formation, DGKd (SAM) [1]	degree of fluorescent focus formation, TEL (SAM) [1]	degree of fluorescent focus formation, Tankyrase (SAM) [1]	degree of fluorescent focus formation, P62 (PB1) [1]	degree of fluorescent focus formation, TFG (PB1) [2]
B1	+++ (fluorescent foci were observed in 50% or more of the HeLaS3 cells)	+++ (fluorescent foci were observed in 50% or more of the HeLaS3 cells)	++ (fluorescent foci were observed in 50% or less of the HeLaS3 cells)	+++ (fluorescent foci were observed in 50% or more of the HeLaS3 cells)	–
B2	+++ (fluorescent foci were observed in 50% or more of the HeLaS3 cells)	+++ (fluorescent foci were observed in 50% or more of the HeLaS3 cells)	++ (fluorescent foci were observed in 50% or less of the HeLaS3 cells)	+++ (fluorescent foci were observed in 50% or more of the HeLaS3 cells)	+
B3	+++ (fluorescent foci were observed in 50% or more of the HeLaS3 cells)	+++ (fluorescent foci were observed in 50% or more of the HeLaS3 cells)	++ (fluorescent foci were observed in 50% or less of the HeLaS3 cells)	+++ (fluorescent foci were observed in 50% or more of the HeLaS3 cells)	++ (fluorescent foci were observed in 50% or less of the HeLaS3 cells)
B4	+++ (fluorescent foci were observed in 50% or more of the HeLaS3 cells)	+++ (fluorescent foci were observed in 50% or more of the HeLaS3 cells)	+	+++ (fluorescent foci were observed in 50% or more of the HeLaS3 cells)	–
B5	+++ (fluorescent foci were observed in 50% or more of the HeLaS3 cells)	+++ (fluorescent foci were observed in 50% or more of the HeLaS3 cells)	+++ (fluorescent foci were observed in 50% or more of the HeLaS3 cells)	+++ (fluorescent foci were observed in 50% or more of the HeLaS3 cells)	++ (fluorescent foci were observed in 50% or less of the HeLaS3 cells)
B6	+++ (fluorescent foci were observed in 50% or more of the HeLaS3 cells)	++ (fluorescent foci were observed in 50% or less of the HeLaS3 cells)	+	+++ (fluorescent foci were observed in 50% or more of the HeLaS3 cells)	–
B7	+++ (fluorescent foci were observed in 50% or more of the HeLaS3 cells)	+++ (fluorescent foci were observed in 50% or more of the HeLaS3 cells)	+	+++ (fluorescent foci were observed in 50% or more of the HeLaS3 cells)	–
